Target: VMRFL (VEGFR2-c-MPL chimeric receptor, D1-7 linked to the c-MPL TM) (human)
Experiment: cell-based or functional assay

EC50 of % pSTAT5+ cells (VEGF dose-dependent STAT5 phosphorylation in VMRFL+ T cells): 106 pg/ml | EC50 of pSTAT5 MFI (VEGF dose-dependent STAT5 phosphorylation in VMRFL+ T cells): 144 pg/mL
Substance: recombinant human VEGF-A165 (from UniProt P15692 27-191) (ligand)

Reference: patent US20250262274A1
